Laboratory results as given in paper PMC3424542.

Molecular target: T1, XtrLin28b CSD (Xenopus tropicalis, UniProt B4F6I0 27-114)
T1 sequence: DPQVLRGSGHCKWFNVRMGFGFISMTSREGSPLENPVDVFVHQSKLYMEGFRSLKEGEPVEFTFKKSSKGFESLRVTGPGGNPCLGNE
Assay: crystal structure

UUUUUU (ssRNA) [rU6]
binding result: binds
